Experiment: yeast display, Sf9 membrane polyspecificity reagent, FACS + sequencing; frameworks hold sequencing errors
Method in brief: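 Galactose induction of a Saccharomyces cerevisiae BJ5465 synthetic nanobody display library ran 36–48 hours. The cells were then stained for 1 hour at 4 °C with 10% biotinylated, detergent-solubilized Sf9 membrane reagent, pulled down on streptavidin microbeads and FACS-sorted into low and high (top ~1%) gates on expression and reagent-binding fluorescence. Labels for polyreactivity follow the gate of origin.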

Sequence	polyreactivity (PSR sort gate)
QVQLVESGGGLVQAGGSLRLSCAASGRIFTCYAMGWYRQAPGKERELVAAISSAGRTYYADSVKGRFTISRDNAKNTVYLQMNSLKPEDSAVYYCAKVSKYRHFYTFDYWGQGTQVTVSS	high polyreactivity
QVQLVESGGGLVQAGGSLRLSCAASGSTFHYNAMGWYRQAPGKERELVAAIDNGGRTNYADSVKGRFTISRDNAKNTVYLQMNSLKPEDPAVYYCATRGYFWSFTTSYYHYYYWGQGTQVTVSS	high polyreactivity
QVQLVESGGGIVQAGGSLRLSCAASGNIFGQYAMGWYRQAPGKERELVAAITTTGSTYYADSVKGRFTISRDNAKNTVYLQMNSLKPEDTAVYYCAAVRYYPISYSEYWQYGYWGQGTQVTVSS	low polyreactivity
QVQLVESGGGLVQAGGSLRLSCAAYGSTFWPYAKGWSRQAPGKERELVAAISSSGGSTYYADSVKGRFTISRDNAKHTVYLQMNSLIPEDTAVYYCNIDYHRPYGGGSKGDFWGQGTQVTVSS	low polyreactivity
QVQLVESGGGLVQAGGSLRLSCAASGFTFVQYAMGWYRPAPGKERELVATISKSGGITYYADSVKGRFTISRDTAKNTVYLHMNSVKPEDTAVYYCAAAWYYSSRGFHATWGHDYWGQGTQVTVSS	low polyreactivity
QVQLQESGGGLVQAGGSLRLSCASSGSIFKVVDKGLYRQAPAKEREFVATIGEGGNTYYADSVKGRFTISRDNAKNTVYLQMNSLKPEDTAVYFYAVVLGTSYRYTYWGQGTQVTVSS	low polyreactivity
QVQLVESGRGLVQAGGSLRLSCAASGSIFYYLAKGWYRQAPGKERELVAVIDFSGASTSYADSVKGRFTISRDNAKNTVYLQMNSLKPEDTAVYYCAADRFRRKVRVDYWGQGTQVTVSS	low polyreactivity
QVQLVESGGGLVQAGGSLRLSCSASGSISHYAMGWYRQAPGKERELVAAISRRGGSTYYADSVKGRFTISRDNAKNTVYLQKNSLKPEDTAVYYCNKATSYFTVRGYDYCGQGTQVTVSS	high polyreactivity
QVQLVESGGGLVQAGGSLRLSCDASGRIFVRYTMGWYRQATGKERELVAAITRSGGTYYADSVKGRFTISRDNATNTVYLQMNSLKPEDTAVYYCAADSWLSLWYEYWGQGTQVTVSS	low polyreactivity
QVQLVESGGGLVQAGGSLRLSCAASGSTFFKNTMGWYRQAPGKEREFVAAIRWSTSRTYYADSVKGRFTISRDNAKYTVYLQMTSLKPEDTAVYYCNAGTSLSRRYPEDYYWGQGTQVTVSS	high polyreactivity
QVQLVESGGGLVQAGGSLRLSCAASGGTFYNYAMGWYRQAPGKERELVAAISTSGTSTYYADSVKGRFTISRDNAKNTVYLQMNSLKPEDTAVYYCAARGLRVSSRGYYWGQGTQVTVSS	high polyreactivity
QVQLVESGGGLVQAGGSLRLSCAASGSTLAIYAKGWYRQAPGKERELVAAISGGGSTYADSVKGRFTISRDNAKNTVYLQMNSLKPEDTAVYYCNADGWGDRFWSNFRFDYWGQGTQVTVSS	low polyreactivity
QVHLVESGGGFFQAGGSLRLSCAASVITFPLYAMGWYRPAPGKERELVSAISRNGGRTYYADSVKGRFTISRDNAKNTVYLQMNSLKPEDTAVYYCAKVSRGSVSSPRDDYWGQGTQVNVSS	high polyreactivity
QVQLVESGGGLVQAGGSLRLSCAASGRTLNAYAMGWYRHAPGKERELVAAITWDDGSTYYAHSVKGRFTISRDNAKNTVSLQMNSLKPEDSAVYYCAAYAYNAIEYGYWGQGTQVNVSS	low polyreactivity
QVQLVESGGGLDQAGGSLRLSCAASGIIFEQYAMGWYRQAPGKERELVAAISSGGTTYADSVKGRFTISRDNAKNTVYLQMNSLKPEYTAVYYCNDDLSWHGPDWSDYEYDYWGQGTQVTVSS	low polyreactivity
QVHLVESGGGLVQAGGSLRLSCAASGRIFRYYAIGWYRQAPGKERELVAAITWRGDSTYYADSVKGRFTISRDNAKNTVYLQMNSLKPEDTAVYYCNKRWTDKYDSWGQGTQVTVSS	high polyreactivity
QVQLVESGGGLVQAGGSLRLICAASGFTFYRYAMGWYRPAPGKERELVAAITNIAGSTYYADSVKGRFTISRDNAKNTLYLQMNSLKPEDTAVYYCNANRLRRYDYWGQGTQVTVSS	high polyreactivity
